Where “and” joins values, the source holds several entries; their conditions need not be identical. Equal entries are not always repeated. Where no end group is shown, it is not given here.
Assays:
[1] = molecular target: GmPOPB-S577A (inactive mutant) (Galerina marginata) (UniProt H2E7Q8); experiment: ITC; 200 uM peptide in the syringe titrated into 20 uM protein in the cell; 20 °C; 50 mM Tris (pH 8.0), 50 mM NaCl, 10 mM DTT; single-site model, n fixed at 1.0
[2] = test system: CC[C@H](C)[C@H](N)C(=O)N[C@@H](Cc1c[nH]c2ccccc12)C(=O)NCC(=O)N[C@H](C(=O)NCC(=O)N[C@@H](CS)C(=O)N[C@@H](CC(N)=O)C(=O)N1CCC[C@H]1C(=O)N[C@@H](Cc1c[nH]c2ccccc12)C(=O)N[C@H](C(=O)N[C@@H](C)C(=O)N[C@@H](CCC(=O)O)C(=O)N[C@@H](Cc1c[nH]cn1)C(=O)N[C@H](C(=O)N[C@@H](CC(=O)O)C(=O)N[C@@H](CCC(N)=O)C(=O)N[C@H](C(=O)N[C@@H](CC(C)C)C(=O)N[C@@H](C)C(=O)N[C@@H](CO)C(=O)NCC(=O)N[C@@H](CC(N)=O)C(=O)N[C@@H](CC(=O)O)C(=O)N[C@H](C(=O)N[C@@H](CS)C(=O)O)[C@@H](C)CC)[C@@H](C)O)C(C)C)[C@@H](C)O)[C@@H](C)CC; experiment: purified protein, by the assay type; conditions: 50 mM NaCl, 10 mM DTT, duplicate
His680 = His680 (UniProt position 680, DTKAGHGAGKP); experiment: other (titration of the catalytic histidine; the title of ref 41 indicates inhibitor binding); conditions: cited from earlier work
GmPOPB [3] = molecular target: T1, GmPOPB (Galerina marginata, UniProt H2E7Q8); experiment: Global fitting by numerical integration of quenched-flow and stopped-flow data; assay type: biochemical; conditions: read-out: k–5 (tail association), Kintek best-fit
T1 construct: His tag (TEV-cleavable) (cleaved yes); made in house; host or cells: E. coli BL21(DE3)

GmPOPB [4] = molecular target: T1, GmPOPB; experiment: biochemical; conditions: Figure S10, fit to Equation S4; activity normalized to no inhibitor (100%) and 50 µM recognition sequence (0%)
[5] = molecular target: GmPOPB–tail complex (GmPOPB-S577A pre-mixed with the peptide tail) (Galerina marginata) (UniProt H2E7Q8); experiment: stopped-flow tryptophan fluorescence; global fitting by numerical integration (KinTek Global Kinetic Explorer) of stopped-flow binding and quenched-flow turnover data together; 20 °C; k1/k-1 and k5/k-5 linked by the ITC Kd values; k4 and k-4 fixed at best-fit values
[6] = molecular target: GmPOPB–tail complex (GmPOPB-S577A pre-mixed with the peptide tail) (Galerina marginata) (UniProt H2E7Q8); experiment: stopped-flow tryptophan fluorescence; analytical fitting; excitation 285 nm, emission above 320 nm; 20 °C; 50 mM Tris-HCl (pH 8.0), 50 mM NaCl, 10 mM DTT; constants calculated from rate constants; Kov is an apparent dissociation constant for a two-step binding process
porcine POP = conditions: cited from earlier work
[7] = molecular target: T2, Prolyl oligopeptidase B from Galerina marginata (GmPOPB) (Galerina marginata, UniProt H2E7Q8 1-730); experiment: stopped-flow tryptophan fluorescence; 2 μM GmPOPB, peptide tail 0.5-20 μM, 20 °C; this experiment fitted individually by numerical integration (KinTek Global Explorer, Fitspace boundaries), no constraints; conditions: both partners purified
T2 sequence (looked up): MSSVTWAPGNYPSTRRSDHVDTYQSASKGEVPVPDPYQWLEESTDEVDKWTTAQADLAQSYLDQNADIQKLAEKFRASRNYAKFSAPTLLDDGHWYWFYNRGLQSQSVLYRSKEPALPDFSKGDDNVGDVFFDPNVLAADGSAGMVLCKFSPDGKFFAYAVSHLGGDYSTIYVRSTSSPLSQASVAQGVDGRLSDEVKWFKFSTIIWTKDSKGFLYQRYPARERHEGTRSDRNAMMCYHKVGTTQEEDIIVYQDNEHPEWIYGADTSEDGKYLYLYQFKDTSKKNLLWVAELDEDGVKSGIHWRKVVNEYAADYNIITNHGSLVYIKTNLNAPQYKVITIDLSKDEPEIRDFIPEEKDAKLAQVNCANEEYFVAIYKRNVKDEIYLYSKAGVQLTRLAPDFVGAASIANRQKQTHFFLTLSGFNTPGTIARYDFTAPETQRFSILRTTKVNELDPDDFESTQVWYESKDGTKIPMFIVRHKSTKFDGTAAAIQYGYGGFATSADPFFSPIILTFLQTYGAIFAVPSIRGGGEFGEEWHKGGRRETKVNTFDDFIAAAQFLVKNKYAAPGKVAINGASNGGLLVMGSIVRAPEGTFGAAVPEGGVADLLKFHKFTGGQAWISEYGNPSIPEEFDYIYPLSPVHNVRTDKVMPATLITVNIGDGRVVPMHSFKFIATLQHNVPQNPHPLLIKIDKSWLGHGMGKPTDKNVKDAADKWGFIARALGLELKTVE

[8] = molecular target: T2, Prolyl oligopeptidase B from Galerina …; experiment: stopped-flow tryptophan fluorescence; 2 μM GmPOPB, peptide tail 0.5-20 μM, 20 °C, excitation 285 nm, emission above 320 nm; analytical fitting (replots of kobs and of amplitudes against tail concentration); conditions: both partners purified
[9] = molecular target: T2, Prolyl oligopeptidase B from Galerina …; experiment: as above; conditions: both partners purified; remark: listed apart in the source
[10] = molecular target: T3, Prolyl oligopeptidase B from Galerina marginata (GmPOPB) (Galerina marginata, UniProt H2E7Q8 1-730); experiment: ITC; 200 uM peptide in the syringe titrated into 20 uM protein in the cell; 20 °C; 50 mM Tris (pH 8.0), 50 mM NaCl, 10 mM DTT; single-site model, n fixed at 1.0; conditions: both partners purified
T3 sequence (looked up): T2 sequence (looked up)

[11] = molecular target: T3, Prolyl oligopeptidase B from Galerina …; experiment: as above; conditions: both partners purified; remark: listed apart in the source
[12] = molecular target: T3, Prolyl oligopeptidase B from Galerina …; experiment: stopped-flow tryptophan fluorescence; analytical fitting; excitation 285 nm, emission above 320 nm; 20 °C; 50 mM Tris-HCl (pH 8.0), 50 mM NaCl, 10 mM DTT; constants calculated from rate constants; Kov is an apparent dissociation constant for a two-step binding process; conditions: both partners purified
[13] = molecular target: T3, Prolyl oligopeptidase B from Galerina …; experiment: stopped-flow tryptophan fluorescence; global fitting by numerical integration (KinTek Global Kinetic Explorer) of stopped-flow binding and quenched-flow turnover data together; 20 °C; k1/k-1 and k5/k-5 linked by the ITC Kd values; k4 and k-4 fixed at best-fit values; conditions: both partners purified
[14] = other: 20 °C, 50 mM Tris-HCl (pH 8.0), standard error, 20.0 °C

Chain of 25mer peptide substrate of GmPOPB (core plus peptide tail of the amanitin precursor) (A0A067SLB9 11-35 limits assumed): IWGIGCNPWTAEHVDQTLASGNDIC

“25mer peptide substrate of GmPOPB (core plus peptide tail of the amanitin precursor)” showed a stoichiometry N [1] of 1.

With GmPOPB (Galerina marginata CBS 339.88) the Km [2, 14] was 55 µM and 55.4 ± 18.6 µM, the kcat [2, 14] was 0.23 ± 0.03 s^–1 and the Km ([2]; other: H2O, 37 °C, 50 mM Tris (pH 8.0), LC–MS, 37.0 °C) was 51 µM.

For “Prolyl oligopeptidase (prolyl endopeptidase, POP) (Sus scrofa)”, the pKa (His680) is listed as 6.25.

WTAEHVDQTLASGNDIC [peptide tail] showed a kon (GmPOPB [3]) of 3.22e+06 ± 10000 M⁻¹ s⁻¹ and an IC50 (GmPOPB [4]) of 320 ± 100 nM.

“eight-amino acid cyclic peptide product of the GmPOPB macrocyclization reaction” gave a k3 (slower step of the two-step binding, direction of release of the cyclic peptide) [5] of 12.3 s^–1, a k4 (fast bimolecular step of the two-step binding, dissociation of the cyclic peptide) [5] of 100 s^–1 and a k-3 (slower step of the two-step binding, direction of binding of the cyclic peptide) [5] of 0.78 μM^–1 s^–1. It also gave a k-4 (fast bimolecular step of the two-step binding, association of the cyclic peptide) [5] of 60 μM^–1 s^–1 and a Kd [6] of 99.2 nM.

In the case of “porcine POP: Sus scrofa (porcine) prolyl oligopeptidase”, the “activation energy, porcine POP” value (porcine POP; depending on the substrate used) is listed as 14 to 20 kcal mol^–1, the “pKa (first), porcine POP” value (porcine POP; dipeptide substrate) is listed as 5 and the “pKa (second), porcine POP” value (porcine POP; dipeptide substrate) is listed as 7. For the same molecule, the “pKa (third), porcine POP” value (porcine POP; dipeptide substrate) was 9.5 and the “pKa of catalytic His680, porcine POP” value (porcine POP; titration of the catalytic histidine) was 6.25.

With WTAEHVDQTLASGNDIC [Peptide tail (WTAEHVDQTLASGNDIC)] the koff [7] was 0.58 s⁻¹, the kon [7] was 4.69e+06 M⁻¹ s⁻¹ and the koff [8] was 3.54 s⁻¹. The kon [8] was 4.84e+06 M⁻¹ s⁻¹ and the Kd [9] was 322 ± 37.5 nM.

With WTAEHVDQTLASGNDIC [peptide tail (17-amino acid C-terminal recognition sequence)] the “stoichiometry N” value [10] was roughly 1, the Kd [11] was 442 nM and the Kd [12] was 731 nM. For the same molecule, the koff [13] was 1.44 s⁻¹.
